Results as given in patent US20200399314A1 (MEDIKINE, published 2020).
Bridge positions count the residues as written; N and C are the ends. Ends that are not written are not given here.

T1: human IL-2Rα subunit (human, UniProt P01589 22-213, limits assumed)
T1 construct: also called CD25
T1 sequence (looked up): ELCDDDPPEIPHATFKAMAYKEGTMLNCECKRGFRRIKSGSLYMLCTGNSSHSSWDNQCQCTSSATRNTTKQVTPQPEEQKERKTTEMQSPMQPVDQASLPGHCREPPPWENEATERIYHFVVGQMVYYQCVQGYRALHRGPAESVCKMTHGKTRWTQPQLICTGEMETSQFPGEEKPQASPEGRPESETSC

B1: SEQ ID NO 127 (peptide)
peptide: ETPCDLHPGHWSCSMV
B2: SEQ ID NO 10 (peptide)
peptide: FVPWDVYFSQIL
B3: SEQ ID NO 132 (peptide)
peptide: KLWCQNNPGNSICDMY
B4: SEQ ID NO 131 (peptide)
peptide: GSRCYWDPGREVCIFK
B5: SEQ ID NO 126 (peptide)
peptide: AGWCKLNPGTQVCSFY
modifications: disulfide 4-13 (inferred)
B6: SEQ ID NO 121 (peptide)
peptide: NWECIFSPGRRGCSLT
B7: SEQ ID NO 134 (peptide)
peptide: RLFCLMNPGPPDCWIY
B8: SEQ ID NO 133 (peptide)
peptide: KSWCFDHPGYPICQFY
B9: SEQ ID NO 129 (peptide)
peptide: GLRCYFDPGSQICTFL
B10: SEQ ID NO 128 (peptide)
peptide: FFLCDDFPGLPRCEWI
B11: SEQ ID NO 130 (peptide)
peptide: GQRCTYDPGQDACVFS

target: T1, human IL-2Rα subunit

IC50, < 100 µM:
B1
B2
B3
B4
B5
B6
B7
B8
B9
B10
B11
